IntAct's records for PubMed 31036956

B1: Proto-oncogene Wnt-3 (Homo sapiens), P56703 (parent)
chain: MEPHLLGLLLGLLLGGTRVLAGYPIWWSLALGQQYTSLGSQPLLCGSIPGLVPKQLRFCRNYIEIMPSVAEGVKLGIQECQHQFRGRRWNCTTIDDSLAIFGPVLDKATRESAFVHAIASAGVAFAVTRSCAEGTSTICGCDSHHKGPPGEGWKWGGCSEDADFGVLVSREFADARENRPDARSAMNKHNNEAGRTTILDHMHLKCKCHGLSGSCEVKTCWWAQPDFRAIGDFLKDKYDSASEMVVEKHRESRGWVETLRAKYSLFKPPTERDLVYYENSPNFCEPNPETGSFGTRDRTCNVTSHGIDGCDLLCCGRGHNTRTEKRKEKCHCIFHWCCYVSCQECIRIYDVHTCK

Variants of: B1
Conditions: with lrp6_human LRP6, O75581
lrp6_human LRP6, O75581, sequence (O75581 whole entry): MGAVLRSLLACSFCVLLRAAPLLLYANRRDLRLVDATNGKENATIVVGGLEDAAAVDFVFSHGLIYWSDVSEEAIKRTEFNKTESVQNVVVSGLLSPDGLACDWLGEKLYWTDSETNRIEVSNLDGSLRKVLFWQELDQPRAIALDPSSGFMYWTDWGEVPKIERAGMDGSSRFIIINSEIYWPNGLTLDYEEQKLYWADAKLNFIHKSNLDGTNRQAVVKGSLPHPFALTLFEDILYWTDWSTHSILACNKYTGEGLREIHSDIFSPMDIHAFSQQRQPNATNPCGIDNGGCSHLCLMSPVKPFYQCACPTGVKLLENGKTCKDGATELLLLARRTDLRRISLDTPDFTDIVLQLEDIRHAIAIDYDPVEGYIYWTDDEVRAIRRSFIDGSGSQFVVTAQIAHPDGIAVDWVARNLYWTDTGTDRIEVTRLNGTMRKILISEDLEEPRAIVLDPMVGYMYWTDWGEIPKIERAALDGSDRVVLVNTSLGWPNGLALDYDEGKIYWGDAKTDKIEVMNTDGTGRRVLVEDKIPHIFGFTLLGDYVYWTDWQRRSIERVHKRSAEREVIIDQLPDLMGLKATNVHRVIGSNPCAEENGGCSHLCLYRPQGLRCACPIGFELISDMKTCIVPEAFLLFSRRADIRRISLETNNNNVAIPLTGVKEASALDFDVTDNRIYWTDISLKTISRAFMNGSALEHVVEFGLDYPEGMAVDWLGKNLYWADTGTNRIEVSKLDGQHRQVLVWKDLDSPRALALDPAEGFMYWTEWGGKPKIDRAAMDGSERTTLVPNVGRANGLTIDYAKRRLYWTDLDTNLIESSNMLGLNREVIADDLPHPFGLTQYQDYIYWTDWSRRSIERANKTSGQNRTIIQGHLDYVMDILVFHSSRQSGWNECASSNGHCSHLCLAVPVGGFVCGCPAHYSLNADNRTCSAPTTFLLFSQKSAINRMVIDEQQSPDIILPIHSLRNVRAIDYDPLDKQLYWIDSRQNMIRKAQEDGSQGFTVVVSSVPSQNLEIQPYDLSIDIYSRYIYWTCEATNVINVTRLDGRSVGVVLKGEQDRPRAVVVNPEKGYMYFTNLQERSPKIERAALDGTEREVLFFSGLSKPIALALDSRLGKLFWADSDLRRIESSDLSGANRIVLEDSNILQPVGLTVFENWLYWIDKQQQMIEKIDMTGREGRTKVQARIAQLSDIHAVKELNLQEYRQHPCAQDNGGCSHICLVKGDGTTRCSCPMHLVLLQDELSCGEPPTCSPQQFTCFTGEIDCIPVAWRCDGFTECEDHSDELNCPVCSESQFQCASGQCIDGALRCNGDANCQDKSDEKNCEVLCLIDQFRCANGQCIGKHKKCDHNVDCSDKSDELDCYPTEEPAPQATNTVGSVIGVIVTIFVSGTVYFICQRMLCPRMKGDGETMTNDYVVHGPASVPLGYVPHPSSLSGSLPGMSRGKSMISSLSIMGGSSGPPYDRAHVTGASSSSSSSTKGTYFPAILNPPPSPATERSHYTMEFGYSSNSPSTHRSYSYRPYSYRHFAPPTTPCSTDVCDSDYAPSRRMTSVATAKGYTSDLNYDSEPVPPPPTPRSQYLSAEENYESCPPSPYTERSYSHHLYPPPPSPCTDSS

Row | effect of a mutation on the interaction | Variant
1 | disrupting interaction | R253E
